The source of these data is the DeepSol protein solubility set.

The data set can be described thus: soluble on expression in E. coli; label from the status in PepcDB or PDB records.
Turning to “MSTDIDCIVIGAGVVGLAIARALAAGGHEVLVAEAAEGIGTGTSSRNSEVIHAGIYYPADSLKARLCVRGKHLLYEYCAARGVPHQRLGKLIVATSDAEASQLDSIARRAGANGVDDLQHIDGAAARRLEPALHCTAALVSPSTGIVDSHALMLAYQGDAENDGAQLVFHTPLIAGRVRPEGGFELDFGGAEPMTLSCRVLINAAGLHAPGLARRIEGIPQDSIPPEYLCKGSYFTLAGRAPFSRLIYPVPQHAGLGVHLTLELGGQAKFGPDTEWITTEDYTLDPRRADVFYAAVRSYWPALPDGALAPGYTGIRPKISGPHEPAADFAIAGPASHGVAGLVNLYGIKSPGLTASLAIAEETLARLAALEHHHHHH”, the “soluble on expression in E. coli” value is listed as “not soluble”.

“MINNDLLRRISNIFDLTDETILTTFALSQCEISAEQLTNFFKEKDDTAYQPLEDVQFASFLNGLIIAKRGPSDGPERPVEEELTNNMIFNKVKIALSLKAEEVIATLELADLSLGKYELSAFFRNVNNKHYKDCSDEVLSAFLKGLKIKSK”: the “soluble on expression in E. coli” value is listed as “not soluble”. As for “MTTIDLNCDLGESFGAYKMGNDDEILPFVSSINVACGFHAGDPSIMRQTVEKALEHNVAIGAHPGFPDLIGFGRRNMNVSASEVYDYVLYQTGALDAFVKAAGGKMQHVKPHGALYNMAASNPEIADAIAKAIYHINPSLLLYGLANSEAFIQAAEKYKVTLVQEAFADRTYKQDGTLTSRTEENALIKDEDEAIKQVLQMVKEGYVNSVNGEKVAVQAQTICLHGDGEKAVQFAERIYRTFKLNGISICAPKLEHHHHHH”, the entry is “soluble”. As for “MTLPQTMKAAVVHAYGAPLRIEEVKVPLPGPGQVLVKIEASGVCHTDLHAAEGDWPVKPPLPFIPGHEGVGYVAAVGSGVTRVKEGDRVGIPWLYTACGCCEHCLTGWETLCESQQNTGYSVNGGYAEYVLADPNYVGILPKNVEFAEIAPILCAGVTVYKGLKQTNARPGQWVAISGIGGLGHVAVQYARAMGLHVAAIDIDDAKLELARKLGASLTVNARQEDPVEAIQRDIGGAHGVLVTAVSNSAFGQAIGMARRGGTIALVGLPPGDFPTPIFDVVLKGLHIAGSIVGTRADLQEALDFAGEGLVKATIHPGKLDDINQILDQMRAGQIEGRIVLEM”, the entry is “soluble”; as for “TTPIVHLKGDANTLKCLRYRFKKHCTLYTAVSSTWHWTGHNVKHKSAIVTLTYDSEWQRDQFLSQVKIPKTITVSTGFMSIGGGTGGGSGGGS”, “soluble”. On to “AHHHHHHGSGLISDADKKVIKEEFFSKMVNPVKLIVFVRKDHCQYCDQLKQLVQELSELTDKLSYEIVDFDTPEGKELAKRYRIDRAPATTITQDGKDFGVRYFGLPAGHEFAAFLEDIVDVSREETNLMDETKQAIRNIDQDVRILVFVTPTCPYCPLAVRMAHKFAIENTKAGKGKILGDMVEAIEYPEWADQYNVMAVPKIVIQVNGEDRVEFEGAYPEKMFLEKLLSALS”, for which the “soluble on expression in E. coli” value was “soluble”.

“PHSHPALTPEQKKELSDIAHRIVAPGKGILAADESTGSIAKRLQSIGTENTEENRRFYRQLLLTADDRVNPCIGGVILFHETLYQKADDGRPFPQVIKSKGGVVGIMVDKGVVPLAGTNGETTTQGLDGLSERCAQYKKDGADFAKWRCVLKIGEHTPSALAIMENANVLARYASICQQNGIVPIVEPEILPDGDHDLKRCQYVTEKVLAAVYKALSDHHIYLEGTLLKPNMVTPGHACTQKYSHEEIAMATVTALRRTVPPAVTGVTFLSGGQSEEEASINLNAINKCPLLKPWALTFSYGRALQASALKAWGGKKENLKAAQEEYVKRALANSLACQGKYTSSGQAGAAASESLFISNHAY”: the “soluble on expression in E. coli” value is reported as “soluble”.

Turning to “MGSDKIHHHHHHVDGTSKQVIKRDKMITQAISQLTPQNKLLVEEINKNVQDTILERLNMNIAGRWNDSSLSLTLMKSTIKFVPVIDSPSRLYLVNDSEKVFRIPEKFACFYGQNDNGETIYFYAIYHAENFMKDTNPKSYYQGYVEVFGKEAADKMVESSIKRTEAERWEIMSFTPQKNETKKFEYAREHSDDGTFFILTRENTYPHICFFKDKKPYYCWGANQDELSMEPLENYLKP”, the “soluble on expression in E. coli” value is reported as “not soluble”. As for “VRLLESGGGLVQPGGSLKLSCAASGFDYSRYWMSWVRQAPGKGLKWIGEINPVSSTINYTPSLKDKFIISRDNAKDTLYLQISKVRSEDTALYYCARLYYGYGYWYFDVWGAGTTVTVSSAKTTPPSVYPLAPGSAAAAASMVTLGCLVKGYFPEPVTVTWNSGSLAAGVHTFPAVLQAALYTLSSSVTVPSSSWPSETVTCNVAHPASSTKVDKKIVPRA”, the entry is “soluble”; as for “MGSDKIHHHHHHMKTPLVITALSLCLPFMAHAGSSFVEGDDILAGEVELGATLTTGNTDTSSFKGRLALKHELGNWENQYLLEGLYKEDTETVTAKRYIVGAQGDYLIDHDSYIFSNMNYEVDPFTGYEYSFTAASGYGHKFINDDRTKLKAEIGPGFIYQKLDSTLAAIEGYDTDKSVVAHAVINFETKLGDSSKFGQKLVMDMGEKIDARSETSLTANIVGALAMKFAVIVRYNSNPLDSKTSTDTETNMTLLYAF”, “not soluble”; as for “NKNAFLIVRGNLTYAHSEYLKYEDNTYDKEWWKYKIGYSPNQKWGYIAEGLFIDDAEVANSPVQFGDYKAGDIKYRDMNGDGVINSLDQVPIGHPTSPEINYGFGSTFSYKGFDINFQFHGSAQSSFWIDYDKMSPFFKDSKMSQKTNNQLVKFIANSYWSESNRNRYATWPRLSTTSVANNKELSTWFMRDGSFLRLKLVELGYTVPQKIVSKWGMSNLRLYMSSTNLFVLSKFKDWDVELAGNGLNYPLQRVFNIGVNVSF”, “not soluble”.

As to “MTMKMSGTEIQKHFKTLKGTIAITSIEDGDGSHVVWTFDFEKVHKDIDDSHSIIDETVKYLKELDEVLLKFHE”, the “soluble on expression in E. coli” value was “soluble”. As for “MQVLDKTQVEAVSKALGEPAWLLEKRLKALEAFARLPYPSKKDENWRYTDLSEAPLELPVEAPKGLRLSRDDLPEPVKRRLERTDVSGFLVFVGPDLVYAEVPEALKEKGLVFTSLAEALKTHPDKVEAALFQAVYTEDKFAAQNSAFFTHGAFLYVPAGLEVEKPLGVFKVLLEGEKASAGRSLLFLEDNAKAAYIEEYLSLDLPPTLHLSATEMVLRPGARLRHAHVQTFGEGVWHFHRQRALLERDSGLNDLVVNLGGAYARSEVASELVGPGAESEMLGLYFGHGRQQFDHYTLQHHVEHHTRSDLLYKGAVKDEARAVFSGLIRLEKGAQKTDAYQANRNLLLSPTARVDSIPQLEIGANDVRCTHGSTTAPVDEMQLFYLQSRGLPRGLAQELLVKAHLADVLSRIPLKALRAHIEAVIEEKVRI”, the entry is “soluble”; as for “MVAGFTVHSGPHHVPHRDMTHHSRPPGHAPRVTILMPVYNGEKYLAAAMESILDQTFRDFILLIIDDGSSDSSLAIARSFGDPRVQVERNPKNLGLVKTLNRGLDLVQTEFVARMDCDDIALPDRLEKQIAFLDENPDIGMCGTAYELFHESLRQTIRPPCRHEEIVYGLLDDNVFLHSSVIVRMEVLNRHGLRYREDYRLAEDYELWARLARYTHIGNLPQVLVRYRSHPENVSNTNKGEQIATRDRVRLEHLESFGLAPAADQKTLHIDLFSLAFQGSPDQLADARRWLEALARAVSTRCGLPLGRLHRDFALLWYSACGRSAHHGLTVLFSYLKSAMAWKGPKSYILKLLFRCLMRDPIPAVTK”, “not soluble”. In the case of “MNFGESYCSFHCSWCQPLLDSLSKESCWYLNFQSVDESQFYDETYFASPKNKTPRVSGKLKEKLLQFVKTPEDLDRPRKRAIIHICRRIKKITGQDIDPEYISKLLYGLKRARRDKFRKINREIFRGLNWDFTQFEKCTFKCVLN”, the “soluble on expression in E. coli” value is on record as “not soluble”. For the sequence “MGSDKIHHHHHHMVTGASGFVGSALCCELARTGYAVIAVVRRVVERIPSVTYIEADLTDPATFAGEFPTVDCIIHLAGRAHILTDKVADPLAAFREVNRDATVRLATRALEAGVKRFVFVSSIGVNGNSTRQQAFNEDSPAGPHAPYAISKYEAEQELGTLLRGKGMELVVVRPPLIYANDAPGNFGRLLKLVASGLPLPLDGVRNARSLVSRRNIVGFLSLCAEHPDAAGELFLVADGEDVSIAQMIEALSRGMGRRPALFTFPAVLLKLVMCLLGKASMHEQLCGSLQVDASKARRLLGWVPVETIGAGLQAAGREYILRQRERRK”, the “soluble on expression in E. coli” value is “not soluble”. In the case of “MSLFLIMSGAYVGQELESEFGRIPPSFLPLGNRRLFQHQVALAPQGVKVYLSLPESYVVSEIDLQWLEQNQVTIIATPDGLSLGASLVAALNISGHSLNAPLHILYGDTLFNQLPVGDDIVSVSTAKDSYNWAVLTNDDVDWLQDANTPMSHESQRIIDGYFKFSHPRELVRCITQSEWKFIAGLNRYHKSVGLSAVNSIGWLDFGHVNTYYHSKAEFTTQRAFNELTITAKWIEKSSIKNQKIAAEAYWFDNLPMAMRGFIPQYLGSQNSEGKISYRLEYLYLTALNELFVFSRLPSQIWQKILASAVEFLSLCLEQAVEPNAPINTLDILFADKTALRLNEFCAARHITLEDQWQFAGQDISLAQILRDSQKHLPDGKPLLGVLHGDFCFSNILYDFRANKIKTIDPRGMTPDGQKTLYGDIRYDLAKLSHSILGLYDWIIAGYYHVEIADNAIELKIAEQSHHKETQQGFIELIEQTFGLTAKNLYAMQIQLFLSMLPLHADDRRRQDALFANAFRLHQILLRLDQEGHHHHHH” it was “soluble”; in that of “MGSDKIHHHHHHVLRAGLIHSLASRPQTWHSTAMDSDGYEIETHVGRRRAMRYHFWIDHEILRYPWTNFDEIAPGVFRSNHPTRARFKAYAERGIKTILTLRGGEDRPHHLLEVEACRDFGLTFECVPMSARHAPTVAQLSAVFEVLDRIERPFLIHCKSGADRTGLVSAIYLMHYENIPFDQARVQLSFRYIHIRRSQTGILDVFLEAFAARHAETGIGIRDWIMTEYDEAALTASFDQRQRNLWPWEGWRSGVS”, “not soluble”. Regarding “MGSDKIHHHHHHMNNIQAIRKKVETQIDDLQNKTDEIAEFNQAKVLDAFQENKVSDFHFHPSTGYGYDDEGRDTLERVYATVFKTEAALVRPQIISGTHAISTVLFGILRPDDELLYITGQPYDTLEEIVGIRKQGQGSLKDFHIGYSSVPLLENGDVDFPRIAKKMTPKTKMIGIQRSRGYADRPSFTIEKIKEMIVFVKNINPEVIVFVDNCYGEFVEYQEPPEVGADIIAGSLIKNPGGGLAKTGGYIAGKEALVDLCGYRLTTPGIGREAGASLYSLLEMYQGFFLAPHVTAQAIKGARFTAAMLAEFGVEADPVWDAPRTDLIQSVSFHNKEKMVAFAQAIQAASPVNAHVLPIGAYMPGYEDDVIMAAGTFIQGASLELTADGPIREPYQLYVQGGLTYEHIKIAVTRAIQKIV”, the “soluble on expression in E. coli” value was “not soluble”. With “MKVLILRPAELLSETIRRFREEGFDAYGCPFIKLIYTDFDVPEHDFAIVTSQNAARVLRERGVRLKRVIAIGKKTAELIEAEEVLLPSKFDSETLYEEFAEMLRGKRVVAFRSNAGSEAVKRLSEVADFREIQVYRIEKLQGEEQRREVEKVREGFYDAIVFSSSMIARSLLELCDEKCLEALKNIFVVAIGPPTAKVLAEKGIRAEIPEEYTFDGVIELLKSKKMLEHHHHHH”, the “soluble on expression in E. coli” value is listed as “soluble”.

As to “MIKRTLLLAMLPILAHAEELPAPVKAIEKQGITILKSFEAPGGMKGYLGKYQDMGVTIYLTPDGKHAISGYMYNEKGENLSNALIEKEIYAPAGREMWQKMEKASWILDGKKDAPVVLYVFADPFCPYCKQFWQQARPWVESGKVQLRTLLVGVIKPESPATAAAILAAKDPAKTWHDYEASAGKMKLEVPASIPPAQMKVINQNQQLMDDLGANATPAIYYMNKDKILQQVVGLPEKAQLDAMMGQP”, the “soluble on expression in E. coli” value is “not soluble”.
